This is an account of results in the nanobody polyreactivity screen of Harvey et al. (2022).

This series can be described thus: yeast display, Sf9 membrane polyspecificity reagent, FACS + sequencing; frameworks hold sequencing errors. In a few lines: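 A synthetic nanobody library was expressed on Saccharomyces cerevisiae BJ5465 by galactose induction for 36–48 hours. The library was stained for 1 hour at 4 °C with 10% biotinylated, detergent-solubilized Sf9 membrane reagent and enriched with streptavidin microbeads before FACS. Low and high (top ~1%) gates were set on anti-HA fluorescence for expression and streptavidin fluorescence for reagent binding, and each polyreactivity label reflects the gate of origin.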
As for “QVQLVESGGGLVQAGGSLRLSCAASGFTFYYYAMGWYRQAPGKERELVAAISWSSGRTYYADSVKGRFTISRDNAKNTVYLQMNSLKPEDTAVYYCAADGYAGSWWYDYWGQCTQVTVSS”, the “polyreactivity (PSR sort gate)” value is reported as “high polyreactivity”.
For “QVQLVESGGGLVQAGGSLRLSCAASGFTFYYYAMGWYRQAPGKEREMVAAISGGGGSTYYADSVKGRFTISRDNAKNTVYLQMNSLKPEDTAVFYCAAEYRGYPEDEYWGQGTQVTVSS”, the “polyreactivity (PSR sort gate)” value is on record as “high polyreactivity”.
As for “QVQLVESGGGLVQAGGSLRLSCAASGFTFYYYAMGWYRQATGKERELVAAISSTGGSTYYADSVKGRFTISRDNAKNTVYLQMNSVKQEDSAVYYCNAAGYRYPGDYDYWGQGTQVTVSS”, the entry is “high polyreactivity”; as for “QVQLVESGGGLVQAGGSLRLSCAASGFTFYYYTMGWYRQAPGKEREFVAAITSSGGRTNYADSVKGRFTISRDNAKNIVYLQMNRLKPEDTAVYYCAATYIRYDHYRPRGGYWGQGTQVTVSS”, “high polyreactivity”.
As for “QVQLVESGGGLVQAGGSLRLSCAASGFTFYYYTMGWYRQAPGKQRELVAAITWRGGSTNYADSVKGRFTISRDNAKNTVFLQMNSLKPEDTAVYYCAAVSYWFWPGMDYWGQGTQVTVSS”, the entry is “low polyreactivity”; as for “QVQLVESGGGLVQAGGSLRLSCAASGFTFYYYVMGWYRQAPGKERELVAAITNGGSTYYADSVKGRFTISRDNAKNTVYLQMISLKPEDTAVYYCATRQSHWSGEFDYWGQGTQVTVSS”, “high polyreactivity”.
As for “QVQLVESGGGLVQAGGSLRLSCAASGFTIDAYAMGWDRQAPGKERELVAAISGSGGSTYYADSVKGRFTISRDNAKNTVYLQMNSLKPEDTAVYYCATDPGPYDYDYWGQGTQVTVSS”, the entry is “low polyreactivity”; as for “QVQLVESGGGLVQAGGSLRLSCAASGFTIDDNAMGWSRQPPGKERELVAAISWSGGSTYYADSVKGRFTISRDNAKNTVYLQMNSLKPEDTAVYYCAIDVSQPKFDYWGQGTQVTVSS”, “low polyreactivity”.
Consider “QVQLVESGGGLVQAGGSLRLSCAASGFTIDGYAMGWYRQAPGKERELVAAIRRGGRTKYADSVKGRFTISRDNAKNTVYLQLNSLKPEDTAVYYCNAVTRGYYHEMEYWGQGTQVTVSS”, for which the “polyreactivity (PSR sort gate)” value is given as “high polyreactivity”.
The same measure for “QVQLVESGGGLVQAGGSLRLSCAASGFTIDYYTMGWYRQAPGKERELVAAISWSGGSTYYADSVKGRFTISRDNAKNTVYLQMNSLKPEDTAVYYCAAAWSYRYELYYWGQGTQVTVSS”: “low polyreactivity”.
As for “QVQLVESGGGLVQAGGSLRLSCAASGFTIERNAMGWYRQAPGKERELVATISQSGTNTYYADSVKGRFTISRDNAKNTVYLQMNSLKPEETAVYYCNARDIFYRYDYWGQGTLVTVSS”, the entry is “low polyreactivity”; as for “QVQLVESGGGLVQAGGSLRLSCAASGFTIGNYAMGWYRQAPGKERELVAAISSSGTSTYYADSVKGRFTISRDIAKNTVYLQMNSLKPEDTAVYYCAAEYIINYTIFEYWGQGTQLTVSS”, “high polyreactivity”; as for “QVQLVESGGGLVQAGGSLRLSCAASGFTIGPNAMGWYRQPPGKERELVAAISQSGGSTYADSVKGRFTISRDNAKNTVYLQMNSLKPEDTAVYYCAAQRARVNRYGGKFGYWGQGTQVTVSS”, “high polyreactivity”.
The same measure for “QVQLVESGGGLVQAGGSLRLSCAASGFTIGYNVMGWYREAAGKERELVATISWNGARTYYADSVKGRFTISRDNAKNTVYLQMNSLKPEDTAVYYCAARRYYRGEYDYWGQGTQVTVSS”: “low polyreactivity”; for “QVQLVESGGGLVQAGGSLRLSCAASGFTIKWYTMGWYRPAPGKERELVAGISRRGGSTYYADSVKGRFTISRDNAKNTVYLEMNSLKPEDTAVYYCNVYSRTHYQTYTDDYWGQCTQVTVSS”: “high polyreactivity”.
For the sequence “QVQLVESGGGLVQAGGSLRLSCAASGFTINFYAMGWYRKAPGKERELVAAITASGGGSTYYADSVKGRFTISRDNAKNTVYLQMNSLKPEDTAVYYCNADYPGSFYTYDYWGQGTQVTVSS”, the “polyreactivity (PSR sort gate)” value is given as “low polyreactivity”.
As for “QVQLVESGGGLVQAGGSLRLSCAASGFTINFYAMGWYRQAPGKERELVAAITASGGGSTYYADSVKGRFTISRDNAKNTVYLQMNSLKPEDTAVYYCNADYTGSFYTYDYWGQGTQVTVSS”, the entry is “low polyreactivity”.
The same measure for “QVQLVESGGGLVQAGGSLRLSCAASGFTIPVYAMGWYRQAPGKEMELVADITESGDSTYYADSVKGRFTISRDNAKNTVYLQMNSLKPEDTAVYYCAADGGWFWSLFYTFAFDYCGQGTQVTVSS”: “low polyreactivity”.
As for “QVQLVESGGGLVQAGGSLRLSCAASGFTIRNNAMGWYRQAPGKERELVAAISYSGGSTYYADSVKGRFTISRDNAKNTVYLQMNSLKPEDTAVYYCNRRRWSYLEYDYWGQGTQVTVSS”, the entry is “low polyreactivity”; as for “QVQLVESGGGLVQAGGSLRLSCAASGFTISANTMGCYSQAPGKERELGATISGGSSTNYADSVKGRFTISRDNAKNTVYLQMNSLKPDDTAVYYCAKDGGLRKFDYWGQGTQVTVSS”, “high polyreactivity”; as for “QVQLVESGGGLVQAGGSLRLSCAASGFTISLNTMGWYRQAPGKERELVAAINSGDSTYADSVKGRFTISRDNAKNTGYFQMNSLKPEDTAVYYCNADPDWWYPYFYWGQGTQVTVSS”, “low polyreactivity”.
For the sequence “QVQLVESGGGLVQAGGSLRLSCAASGFTISRYAMGWYRQAPGKERELVASITYSGTRTYYADSVKGRFTISRDNAKNTVYLQMNSLKPEDTAVYYCAADDEYKQEAEMDSWGQGTQVTVSS”, the “polyreactivity (PSR sort gate)” value was “low polyreactivity”.
For the sequence “QVQLVESGGGLVQAGGSLRLSCAASGFTISYYAMGWYRQAPWKEGELVAAIRKSGATTDYADSVKGRFTISRDNAKNTVYLQMNCMKPEDTAVYYCNAKNDQRSLGFDFWRQGTQVTVSS”, the “polyreactivity (PSR sort gate)” value was “high polyreactivity”.
The same measure for “QVQLVESGGGLVQAGGSLRLSCAASGFTITHYAMGWYRQAPGKERELVAAISTSGGSTYYADSVKGRFTISRDNAKNTVYLQMNSLKPEDTAVYYCAARRDGWVQWGYYYWGQGTQVTVSS”: “low polyreactivity”; for “QVQLVESGGGLVQAGGSLRLSCAASGFTITRYARGWYRQAPGKERELVAVITYSGDTYYADSVKGRFTISRDNAKNTVYLQMNSLKPEDTAVYYCAVERAYYSDTGRYGYDYWGQGTQVTVSS”: “high polyreactivity”; for “QVQLVESGGGLVQAGGSLRLSCAASGFTITTYAMGWYRQAPGKERELVAVISVSGGRTYYADSVKGRFTISRDNAKNTVYLQMNSLKPEDTAVYYCAAEYYPGWEYGYWGQGTQVTVSS”: “high polyreactivity”.
Consider “QVQLVESGGGLVQAGGSLRLSCAASGFTIWPYAMGWYRQAPGKERELVAGITRNGGSTYYADSVKGRFTISRDIAKNTVYLQMNSLKPEDTAVYYCNTKYAVEFDYWGQGTQVTVSS”, for which the “polyreactivity (PSR sort gate)” value was “low polyreactivity”.
As for “QVQLVESGGGLVQAGGSLRLSCAASGFTIWYTMGSYRQAPGKEREFLAAITSGGGSTYYAESVKGRFTISRDNAKNTVYFQMNSLKPEDTAVYYCAARERSYRAYGYWRQGTQVTVSS”, the “polyreactivity (PSR sort gate)” value is reported as “high polyreactivity”.
In the case of “QVQLVESGGGLVQAGGSLRLSCAASGFTIYNNAMGWYRQAPGKERELVAGITSGGDSTNYADSVKGRFTISRDNAKNTVYLQMNRLKPEDTAVYYCAAEGGTNTPGVVESDYWGQGTQVTVSS”, the “polyreactivity (PSR sort gate)” value is “low polyreactivity”.
As for “QVQLVESGGGLVQAGGSLRLSCAASGFTIYRYAMGWYRQAPGKERELVAAISSIGGSTYYADSVKGRFTISRDNSKNTVYLQMNSLKPEDTAVYYCAAAISLYSYDYWGQGTQVTVSS”, the entry is “low polyreactivity”; as for “QVQLVESGGGLVQAGGSLRLSCAASGFTIYSYAMGWYRQAPGKERELVAAISSGGSTYYADSVKGRFTISRDNAKNTVYLQMNSLKPEDTAVYYCARRYQVVWYYKYDYWGQGTQVTVSS”, “high polyreactivity”.
The same measure for “QVQLVESGGGLVQAGGSLRLSCAASGFTKFYNAMGWYRQAPGKERELVAAITARGGGTYYADSVKGRFTFSRDNAKNTVYLLMNSLKPEDTAVYYCAKQPIIYWQSSRFDYWGQGTQVTVSS”: “low polyreactivity”; for “QVQLVESGGGLVQAGGSLRLSCAASGFTLADNPMGWYRQAPGKERELVAAITSGASTYYADSVKGRFTISRDNAKNTVYLQMNTLKPEDTAVYYCAALYYWRSGYDAWGQGTQVTVSS”: “low polyreactivity”; for “QVQLVESGGGLVQAGGSLRLSCAASGFTLAFYGMGWYRQAPGKERELVAAISRSGGSTYYADSVKGRFTISRDNAKNTVYLQMNSLKPEDTAVYYCAAAFRAGAVYGYYWGQGTQVTVSS”: “high polyreactivity”.
The same measure for “QVQLVESGGGLVQAGGSLRLSCAASGFTLDVNAIGWYRQAPGKERELVATISWGGASTYYADSVKGRFTISRDNAKNTVYLQMNSLKPEDTAVYYFAAQYYYPDDKGGYDYWGQGTQVTVSS”: “low polyreactivity”; for “QVQLVESGGGLVQAGGSLRLSCAASGFTLDYYAMGWYRKAPGKERELVAAISFSGGSTYYADSVKGRFTISRDNAKNTVYLQMNSLKPEDTAVYFCAADPQIVWYDYWGQGTQVTVSS”: “low polyreactivity”; for “QVQLVESGGGLVQAGGSLRLSCAASGFTLFFHAMGWYRQAPGKERELVATISERGDSTYYADSVKGRFTISRDNAKNTVYLQMNSLKPEDTAVYYCAAVGTYSSYGYWGQGTQVTVSS”: “high polyreactivity”.
In the case of “QVQLVESGGGLVQAGGSLRLSCAASGFTLGPYMGWYRQAPGKERELVAAISGGGGRTYYADSVKGRFTISRDNAKNTVYLQMNSLKPEDTSVYYCAAAYRSYKQFYSYGYEYWGQGTQVTVSS”, the “polyreactivity (PSR sort gate)” value is on record as “high polyreactivity”.
As for “QVQLVESGGGLVQAGGSLRLSCAASGFTLIDYAMGWYRQAPGKERELVAAISGSGGRTYYADSVKGRFTISRDNAKNTVYLQMNSLKPEDTAVYYCAAGRRHVYKRRRYDYCGQGTQVTVSS”, the entry is “high polyreactivity”; as for “QVQLVESGGGLVQAGGSLRLSCAASGFTLKYNTMGWYRQAPGKERELVAAITSSGVSTYYSDSVKGRFTISRDNAKNTVYLQMNSLKPEDTAVYYCNARERYSYWGQGTQVTVSS”, “high polyreactivity”.
Take “QVQLVESGGGLVQAGGSLRLSCAASGFTLLPYAMGWYRQAPGKERELVAAISRRGVSTYYADSVKGRFTISRDNAKNTVYLQMNSLIPEDTSVYYWASRYFTGYGLRTQFYFWGQGTQVTVSS”: the “polyreactivity (PSR sort gate)” value is reported as “high polyreactivity”.
